We go through 2 molecules from article PMC6418199 (Scientific Reports, 2019).

The target of assay [1] is hemagglutinin of H1N1 clinical isolate A/Taiwan/80813/2013 (genotype A/California/07/2009) (Influenza A virus A/Taiwan/80813/2013 …, UniProt C3W5X2, strain). Briefly: cell-based or functional assay.
Assay [2] deals with hemagglutinin of H1N1 clinical isolate 2013-INF-152 (genotype A/California/07/2009) (Influenza A virus H1N1, clinical …, UniProt C3W5X2, strain). Nature of the assay: cell-based or functional assay.
The target of assay [3] is hemagglutinin of H1N1 clinical isolate 2013-INF-153 (genotype A/California/07/2009) (Influenza A virus H1N1, clinical …, UniProt C3W5X2, strain). Briefly: cell-based or functional assay.
For assay [4], the target named is hemagglutinin of H1N1 clinical isolate 2014-INF-36 (genotype A/California/07/2009) (Influenza A virus H1N1, clinical …, UniProt C3W5X2, strain). Briefly: cell-based or functional assay.
The target of assay [5] is hemagglutinin of H1N1 clinical isolate 2014-INF-37 (genotype A/California/07/2009) (Influenza A virus H1N1, clinical …, UniProt C3W5X2, strain). Nature of the assay: cell-based or functional assay.
In assay [6] the target is HA1 domain (residues 63-290) of hemagglutinin from A/California/07/2009 (H1N1) (Influenza A virus …, UniProt C3W5X2). Briefly: SPR; […], single-cycle kinetics, 25 °C; […]; 10 mM HEPES pH 7.4, 150 mM NaCl. As to conditions: both partners purified. Background: Surface plasmon resonance follows binding to a sensor surface in real time, without labels.

B1: 32D6 human monoclonal antibody (antibody, V domains shown)
VH: QVQLQESGPGLVKPSETLSLTCTVSGGSVNTGSYYWSWIRQPPGKGLEWIAYSSVSGTSNYNPSLKSRVTLTVDTSKNQFSLSVRSVTAADTAVYFCARLNYDILTGYYFFDFWGQGTLVIVSS
VL: QVELTQSPSASASLGTSVKLTCTLSSGHSTYAIAWHQQRPGKGPRYLMNLSSGGRHTRGDGIPDRFSGSSSGADRYLIISSLQSEDEADYYCQTWDAGMVFGGGTKLTVL
With B1, the “Neutralization EC50 (infection of MDCK cells, high-content image system)” value in assay [1] is 0.036 µg/mL; in assay [2] it was 0.014 µg/mL; in assay [3], 0.005 µg/mL; in assay [4] it was 0.011 µg/mL; in assay [5], 0.012 µg/mL.

B2: 32D6-Fab (Fab, V domains shown)
VH: B1 VH
VL: B1 VL
notes: also called Fab of 32D6; His-tagged Fab of 32D6 (with the CH1 domain); source: Expi293F cells, purified (HisTrap excel column)
Usually Kd stands for the concentration at which binding is half-saturated. Usually koff stands for the rate constant with which the complex falls apart. A higher koff goes with fast dissociation. Broadly, the kon is the second-order rate constant of association. Regarding B2, in assay [6], the Kd was 0.353 nM, the koff was found to be 9.12e-05 s⁻¹ and the kon worked out at 258000 M⁻¹ s⁻¹.
